B1: LINE1-full (parent)
chain: UACGUAGGUGGUUUUCCCCUGAUAGUGCUAAGGGGGCCUGGAAGUUUGGACUGGGCAGAGCUCAACACAGCGUGGCAAAGUGGCUGUGGCUAGACUGCCUCUCUGGAUUCCUCGUCACUCAGCAGGGCAUCUCUGAGAGAAAUGCC
B2: OR4K15 (parent)
chain: GUUAACGGUCAUAGGCCAUGGAAACUAGGAGCACCAUUUCGCUGCCAGUGAAGAAAUGAACAAAGAAAAUCUGGGCCAGGCAGGCAUCAAAAGAAAUAGUCUUGCGCUCAACCAGAAAGUCUGUAAUCAUUUUAAGGGUA

Variants of: B1
Assay: self-cleavage, relative activity (ratio to wild type); higher = more cleavage; in vitro, sequencing; the parent is a self-cleaving ribozyme

Variant | self-cleavage
G126U U134A | 0.84
G126U U134C | 1.49
G125A A140G | 1.32
A136G A138G | 1.6
A136G A138U | 1.98
A136U U143A | 1.41
A124G A140G | 0.24
G125C U134C | 1.58
A140U A141G | 1.41
G126A A138U | 1.33
U134A A141G | 1.12
A129U C131U | 1.78
U130C U143A | 1.51
U130C U143C | 1.53
U134C G139A | 1.29
U132C A141G | 1.46
A140C U143C | 1.81
C128U U143C | 1.26
A138C | 0.76
A138G | 1.21
A138U | 1.1
C145U C146A | 1.59
A129G U130C | 1.69
A129G U130A | 1.19

Variant | self-cleavage
C131U A138U | 1.27
U134C C146U | 1.65
G139U C145G | 2.02
A129C A136G | 1.61
A140G A141U | 0.82
G126A C133A | 1.7
A129U A140G | 1.53
C131A A140G | 1.94
A124G | 0.98
A124U | 1.4
C133A U143C | 1.67
G137A A140G | 1.4
U132A U143A | 2
U132A U143C | 1.82
G125U U134G | 1.26
G125U U134A | 1.87
A141C U143C | 1.67
A136G C146U | 1.91
U132C A142U | 1.2
U132C A142C | 1.51
A124G C128A | 0.46
A124G C128U | 0.53
A141G A142C | 0.39
G126U U143C | 1.33

Variant | self-cleavage
U134G A142G | 1.16
G137C A138G | 1.26
C128G | 0.98
C128A | 0.7
C128U | 1.39
A124U G127A | 0.9
A124G G125U | 1.27
A124U A129U | 0.9
A140G A142U | 0.84
G127A U143C | 2.07
A138G C146A | 1.17
A124G A142U | 0.94
A124G A142C | 0.58
A124G A138G | 1.36
G126A A140U | 1.67
U130C C133A | 1.61
U134A A140C | 0.55
U134A A140G | 0.53
U134A A140U | 0.85
A141U U143C | 0.28
G127U U130C | 1.77
G135A C145U | 1.46
A124C A142G | 0.53
A129G G144A | 1.66

Variant | self-cleavage
A129G G144U | 1.67
A129C U130A | 1.47
G127C U143C | 1.61
A141G U143A | 1.29
U132A A136G | 1.79
G144A | 1.23
G144U | 1.58
G144C | 1.34
A129G A138G | 1.44
A129U A136G | 1
A129U A136U | 1.42
A142G U143A | 1.28
A142G U143C | 1.31
G126A A141U | 0.67
G126A A141G | 1.34
C131A | 1.48
C131G | 1.54
C131U | 1.41
G125U U132C | 1.47
A124G G139U | 1.91
A136U A138G | 1.55
A129U G139A | 1.53
U132C A140G | 1.65
U132C A140U | 1.43

Variant | self-cleavage
G126U A129U | 0.81
G126U A129G | 1.61
A140G C146U | 1.63
G126C G137A | 1.45
G125A U132C | 1.55
G126A A129U | 2.47
U134G A136U | 1.72
U130A A142C | 0.79
A124U A141G | 1.36
C133U A138U | 2.36
C133U A138G | 1.32
A136U A140U | 1.65
A136U A140G | 1.7
U130C G144A | 1.57
G126A U143A | 1.49
G126A U143C | 0.77
C133A A142G | 1.4
G126A G127U | 1.44
G125U A136U | 1.8
U134A A142C | 1.23
A124G U132A | 0.87
A124G U132C | 0.82
A141G G144A | 1.28
U134A A136G | 0.53

Variant | self-cleavage
U134A A136U | 1.27
C128U U130C | 1.35
G127A U134G | 1.1
U134C A138G | 1.4
A124C U130C | 1.84
U130C C145U | 1.46
G135C | 1.55
G135A | 1.27
G135U | 1.22
C128A A141G | 1.01
A136C C145A | 1.72
C128A U134A | 0.3
A136G G144A | 0.88
A124U A140G | 1.5
A136U A141G | 1.3
U132G | 1.52
U132C | 1.35
U132A | 1.32
A138G A140U | 1.29
A138G A140C | 1.8
A138G A140G | 1.52
A124U C133A | 1.59
U134G A140G | 1.03
U132C G139U | 2.66

Variant | self-cleavage
A142C U143A | 1.41
G127U A141G | 1.45
U130A C133U | 2.3
U134C G135A | 2.1
U130A A140U | 1.24
U130A A140G | 1.27
A136C A140G | 1.53
G125A G144A | 1.33
A138G G144A | 0.14
A138G G144C | 1.6
A129U G144A | 1.51
A141G C145U | 1
U134C C145U | 1.1
U132A A142G | 1.41
A124U U134C | 1.51
U130C A141C | 2.91
U130C A142C | 1.76
C131G A138G | 2.49
G139A A140G | 0.19
A129G U132C | 1.58
G144C C145U | 0.99
A136G A142G | 1.47
A124U C145U | 1.27
U130C A136U | 1.63

Variant | self-cleavage
A140G G144U | 1.05
A129C A138U | 0.57
G135U A140G | 1.08
G137U | 1.31
G137C | 1.3
G137A | 1.19
U134G A141G | 1.44
A141C A142G | 1.26
G126A | 1.31
G126U | 1.18
G126C | 1.19
G126A A136U | 1.41
A140U U143C | 1.54
A140U U143A | 1.41
A138U A141G | 1.17
C131A U134C | 1.53
A142G C146U | 1.49
U130C U132C | 1.29
U132A A140U | 1.11
A138G A142C | 0.16
A129G G139A | 1.43
U134A C145U | 0.83
A138U A140U | 0.84
C131A A142G | 0.98

Variant | self-cleavage
G127A G139C | 1.41
G125C A138G | 1.9
G126C A140G | 2.25
A138G C145A | 2.76
A140U G144A | 1.39
U134C | 1.18
U134G | 1.46
U134A | 0.98
G127A C146U | 1.43
A136G C145U | 1.45
A140G U143C | 0.26
A129G U134C | 1.43
A129G U134A | 0.89
U130A A136U | 1.18
U130A A136G | 1.46
G125C | 1.59
G125U | 1.23
G125A | 1.19
G127U A129G | 0.75
U143C C145U | 1.06
A124G A136U | 1.3
U132C C146U | 1.51
A138U A142G | 0.93
G127A A138G | 1.36

Variant | self-cleavage
C128U A140U | 1.36
C128U A140G | 0.89
G127C C145U | 1.01
A142G G144A | 1.44
C131U A141G | 1.51
U143C | 1.18
U143G | 1.11
U143A | 1.12
G127A A140G | 0.9
A124G G126A | 1.22
A129U A138G | 0.93
A129U A138U | 1.47
A124G C133A | 0.81
U130A | 1.42
U130G | 1.32
U130C | 1.52
A129G A140G | 1.47
C128U A141G | 1.37
U134C A140G | 1.58
U130G A140G | 1.1
G126A U134C | 1.58
A136U A142C | 1.43
A129G A141G | 1.6
A124U C128U | 1.21

Variant | self-cleavage
U134C A141G | 1.41
A136U C146U | 1.58
A124G U134C | 0.89
A124G U134A | 0.39
A138U U143A | 1.52
C128U A138G | 1.44
A124U U132C | 1.43
A136G U143A | 1.34
U132C A138G | 1.6
U132C A138U | 1.48
A129C U143C | 1.74
G135A A138U | 1.01
U134G G137U | 0.94
A138C A140G | 0.07
A138G U143G | 1.34
A138G U143C | 1.54
G127C A138G | 1.31
A129G U143C | 1.59
A129G U143A | 1.77
C131U U134A | 1.65
A129U A142G | 1.43
A142U U143A | 1.13
G139A A142G | 1.15
A141G | 1.1

Variant | self-cleavage
A141U | 1.04
A141C | 1.04
A138C U143A | 1.94
U143C C146U | 1.51
A129C A140C | 1.29
A129C A140G | 1.67
A129C A140U | 1.75
G125A A129C | 1.36
U132A A141G | 1.58
A129G A136G | 1.7
A124G C145A | 1.22
U130C U134G | 0.54
U130C U134C | 1.51
A136G A141G | 1.03
C146A | 1.45
C146U | 1.29
A136G G137A | 2.12
A124G G127A | 1.15
U132C G144U | 1.43
U132A A138G | 1.39

Variants of: B2
Assay: as above

Variant | self-cleavage
G1U U87C | 0.27
G1U U39A | 1.74
G1A A90G | 0.26
G1U C105A | 0.03
G1A A111G | 0.21
U2A A36U | 1.18
U2A A96G | 1.05
U2A A5G | 1.24
G1A U132C | 0.94
G1A A18G | 1.58
G1A A18C | 1.98
U2A A22U | 0.88
G1A A92G | 1.66
G1A U122C | 0.48
G1A U72C | 0.39
G1A U108C | 0.05
U2A A24G | 0.54
U2A A24C | 0.96
G1U U103C | 1.59
G1A A62C | 2.59
G1A U9G | 1.23
G1U A36G | 1.26
G1A G137A | 0.95
U2A A51U | 0.86
U2A A125U | 2.08

Variant | self-cleavage
U2A A86G | 1.46
U2A A129G | 0.66
G1A C40U | 1.78
U2A A118G | 0.95
G1A A82G | 1.18
G1A A95G | 2.4
G1U A5G | 0.45
G1A A33G | 0.78
U2A A78G | 0.46
U2A A78C | 0.66
U2A A52G | 0.8
U2A A18G | 0.91
G1A A4G | 0.54
U2A A23C | 0.29
U2A A114G | 0.67
G1U A114G | 0.33
G1A U49C | 1.35
U2A A110G | 0.16
U2A | 0.8
G1A G138A | 2.03
G1A A134G | 1.75
G1U A24G | 1.6
U2A A89U | 1.2
G1U A33G | 0.79
G1U A33U | 1.75

Source: the RNAGym collection of RNA variant scans (doi:10.7554/elife.90254)
